Laboratory results published in publication PMC8126837 (Proceedings of the National Academy of Sciences of the …, 2021).

target: T1, SARS-CoV-2 receptor-binding domain (RBD), wild type (SARS-CoV-2, UniProt P0DTC2, DyLight 488 (NHS ester, about 1.9 dye/protein) in the FRET assay only); test: not given; conditions: not given

| Binder | binding result |
| --- | --- |
| WNb 17 (VHH) VHH: QVQLQESGGGLVQPGGSLRLSCAASGSIFSINVMGWYRQAPGKQRELVAAITSVGSTNYADSVKGRFTISRDNAENTVYLQMNSLKPEDTAVYYCNAVSTFTQAMGGSPEHYWGQGTQVTVSS | binds |
| WNb 35 (VHH) VHH: QVQLQESGGGLVQPGGSLRLSCAASGFTFSSYAMGWARQVPGKGLEWVSGIYSDGTTYYADSVKGRFTISRDNAKNTVYLQMNSLKPEDTAVYYCAADRMEGSTWPERDFGSWGQGTQVTVSS | binds |
| WNb 60 (VHH) VHH: QVQLQESGGGLVQPGGSLRLSCAASGFTFSSYLMGWFRQVPGKGLEWVAGIYSDGSTYYADSVKGRFTISRDNAKNTVYLQMNSLKPEDTAVYYCATDRMDGSSWPERDFGSWGQGTQVTVSS | binds |
| WNb 13 (VHH) VHH: QVQLQESGGGLVQPGGSLRLSCAASGFTFSSYAMGWFRQVPGKGLEWVSGIYSDGSTYYADSVKGRFTISRDNAKNTVYLQMNSLKPEDTAVYYCATDRMAGSRWPERDFGSWGQGTQVTVSS | binds |
| WNb 1 (VHH) VHH: QVQLQESGGGLVQAGGSLRLSCAASGRTFDRYAMGWFRQVPGKGLEWVSGIYSDGYTYYADSVKGRFTISRDNAKNTVYLQMNSLKPEDTAVYYCAADRMDGSSWPERDFGSWGQGTQVTVSS | binds |
| WNb 63 (VHH) VHH: QVQLQESGGGLVQPGGSLRLSCAASGFTFRRYLMGWARQVPGKGLEWVSGIYSDGSTYYADSVKGRFTISRDNAKNTVYLQMNSLKPEDTAVYYCAADRMDGSTWPERDFGSWGQGTQVTVSS | binds |
| WNb 45 (VHH) VHH: QVQLQESGGGLVQPGGSLRLSCAASGFTFSSYAMGWFRQVPGKGLEWVSGIYSDGSTYYADSVKGRFTISRDNAKNTVYLQMNSLKPEDTAVYYCAADRMEGSSWPERDFGSWGQGTQVTVSS | binds |
| WNb 58 (VHH) VHH: QVQLQESGGGLVQPGGSLRLSCAASGFTFSSYAMGWFRQVPGKGLEWVSGIYSDGSTYYADSVKGRFTISRDNAKNTVYLQMNSLKPEDTAVYYCAADRMDGSRWPERDFGSWGQGTQVTVSS | binds |
| WNb 26 (VHH) VHH: QVQLQESGGGLVQAGGSLRLSCVVSGRTFSPYAMGWFRQAPGKEREFVAGMSWSSGKYYADSVKGRFTISRDGAKNAVYLQMNSLKPEDTAVYYCGAGGEGYSRGRVNLQPDFWGQGTQVTVSS | binds |
| WNb 25 (VHH) VHH: QVQLQESGGGLVQAGGSLRLSCVTSGLTFSRAAMGWFRQAPEKEREFVASIHWRGLNIAYADSVKGRFTISRDDAKNTLYLQMNSLKTEDTAVYYCAAIPFYYFDHISPFSRAAAYWGQGTQVTVSS | binds |
| WNb 34 (VHH) VHH: QVQLQESGGGLVEAGDSLRLSCAASGRTFSRYAMGWFRQAPGKEREFVAAVSWNGGNTYYADSVKGRFTISRDNAKNTLYLQMNSLKPEDTAVYYCAAGGEPVVVIKLRNANEYDFLGQGTQVTVSS | binds |
| WNb 24 (VHH) VHH: QVQLQESGGGLVQAGESLRLSCAASGRTFSRYAMGWFRQAPGKEREFVAAVSWNGGNTYYADSVKGRFTISRDNAKNTLYLQMNSLKPEDTAVYYCAAGGEPVVVIKLRNADEYDFLGQGTQVTVSS | binds |
| WNb 62 (VHH) VHH: QVQLQESGGGLVQAGGSLRLSCTASRRTFSTCVMGWARQVPGKGLEWVSGIYSDGSTYYADSVKGRFTISRDNAKNTVYLQMNSLKPEDTAVYYCNLDGRYENLEDDYWGQGTQVTVSS | binds |
| WNb 27 (VHH) VHH: QVQLQESGGGLVEAGDSLRLSCAASGRTFSRYAMGWFRQAPGKEREFVAAVSWNGGNTYYADSVKGRFTISRDNAKNTLYLQMNSLKPEDTARYYCVADRGESYYYNRDSEYEWWGQGTQVTVSS | binds |
| WNb 29 (VHH) VHH: QVQLQESGGGLVQPGGSLRLSCAFSGRTFSMYAMGWFRQAPGKEREFVAVIDDGGGRTYYADSVKGRFTISRDNAKNTVYLQMNSLKTEDTAVYCCAADMGFGYTIWADSYDYWGQGTQVTVSS | binds |

target: T2, SARS-CoV receptor-binding domain (RBD) (SARS-CoV, UniProt P59594); test: ELISA; conditions: both partners purified
T2 construct: source: recombinant, purified

| Binder | binding result |
| --- | --- |
| WNb 21 (VHH, source: expressed and purified) VHH: QVQLQESGGGLVQAGGSLTLTCAASERTFGRYVLAWFRQAPGKERELVARISRSTGSTFHADFVLGRFTISRDNAKNTVYLTMNNLKPEDTAVYYCAADKDGGLEYDYWGQGTQVTVSS | binds |
| WNb 23 (VHH, source: expressed and purified) VHH: QVQLQESGGGLVQPGGSLRLSCAASGFTFKDYAMAWARQVPGKGLEWVSGIYSDGNTYYADSVKGRFTISRDNAKNTVYLRMNSLKPEDTAVYYCATERHPQGAADFGSWGQGTQVTVSS | binds |

target: T1, SARS-CoV-2 receptor-binding domain …; test: BLI; conditions: both partners purified

| Binder | Kd |
| --- | --- |
| WNb 2 (VHH, source: expressed and purified) VHH: QVQLQESGGGLVQPGGSLRLSCAVSGFTLDYYAIGWFRQAPGKEREGVSCISSSGGNTKYADSVKGRFTASRDNAKNTFYLQMNSLKPEDTAVYYCAAIAATYYSGSYYFQCPHDGMDYWGKGTQVTVSS | < 500 pM |
| WNb 36 (VHH) VHH: QVQLQESGGGLVQPGGSLRLSCAVSGFTLDYYAIGWFRQAPGKEREGVSCISNSGGNTKYADSVKGRFTTSVDNAQNTVYLLMNSLEPEDTAVYYCAAIAATYYSGTYYYQCPHYGMDYWGKGTQVTVSS | < 500 pM |
| WNb 7 (VHH) VHH: QVQLQESGGGLVQPGGSLRLSCAAPGFTFSSYAMGWFRQVPGKGLEWVSGIYSDGSTYYADSVKGRFTISRDNAKNTVYLQMNSLKPEDTAVYYCAKDRLEGSSWPERDFGSWGQGTQVTVSS | < 500 pM |
| WNb 15 (VHH) VHH: QVQLQESGGGLVQPGGSLRLSCAASGFTFSSYLMGWFRQVPGKGLEWVSGIYSDGGTYYADSVKGRFTISRDNAKNTVYLQMNSLKPEDTAVYYCATDRMEGSSWPERDFGSWGQGTQVTVSS | < 500 pM |

target: T1, SARS-CoV-2 receptor-binding domain …; test: cell-based or functional assay; conditions: not given

| Binder | other |
| --- | --- |
| WNb 67 (VHH) VHH: QVQLQESGGGLVQPGGSLRLSCAVSGFTLDYYAIGWFRQAPGKEREGVSCISSSGGSTNYADSVKGRFTISRDNATNTVYLQMNSLKPEDTAVYYCAAIAATYYGGSYYYQCPHYGMDYWGKGTQVTVSS | ≤ 80 nM |
| WNb 41 (VHH) VHH: QVQLQESGGGLVQPGGSLRLSCAVSGFTLDYYAIGWFRQAPGKEREGVSCISSSGGSTNYADSVKGRFTISRDNAKNTVYLQMNGLKPEDTAVYYCAAIAATYYSGSYYYQCPHDGMDYWGKGTQVTVSS | ≤ 80 nM |
| WNb 50 (VHH) VHH: QVQLQESGGGLVQPGGSLRLSCAASGFTFSSYAMGWFRQVPGKGLEWVSGIYSDGSTYYADSVKGRFTISRDNAKNTVYLQMNSLKPEDTAVYYCAADRMAGSRWPERDFGSWGQGTQVTVSS | ≤ 80 nM |
| WNb 53 (VHH) VHH: QVQLQESGGGLVQPGGSLRLSCAASGFTFSSYLMGWARQVPGKGLEWVAGIYSDGSTYYADSVKGRFIISRDNAKNTVYLQMNSLKPEDTAVYYCAKDRMEDSTWPERDFGSWGQGTQVTVSS | ≤ 80 nM |
| WNb 19 (VHH) VHH: QVQLQESGGGLVQPGGSLRLSCAASGSMFSINVMGWYRQASGKQRELVAGITRDGATNYSDSVKGRFTISGDNAKNTVYLQMNSLKPEDTAVYYCNTNVDSVWGSRIDYFGQGTQVTVSS | ≤ 80 nM |
